How the values were obtained:
[1] = molecular target: bipartite NLS (bpNLS) from the nucleoplasmin; assay: native MS
[2] = molecular target: eVP24–KPNA5-ΔIBB complex (human | Ebola virus) (UniProt Q05322); assay: native MS
[3] = molecular target: monopartite NLS peptide (mpNLS) from the SV40 large T antigen (SV40); assay: fluorescence polarisation
[4] = molecular target: bipartite NLS (bpNLS) from the nucleoplasmin; assay: fluorescence polarisation

eVP24–KPNA5-ΔIBB complex (from UniProt Q05322 11-237)
stoichiometry N [1]: 1
stoichiometry N [2]: 2
Kd [3]: 5200 nM
Kd [4]: 210 nM
